B1: Small glutamine-rich tetratricopeptide repeat-containing protein 2 (Saccharomyces cerevisiae), Q12118 (parent)
chain: MSASKEEIAALIVNYFSSIVEKKEISEDGADSLNVAMDCISEAFGFEREAVSGILGKSEFKGQHLADILNSASRVPESNKKDDAENVEINIPEDDAETKAKAEDLKMQGNKAMANKDYELAINKYTEAIKVLPTNAIYYANRAAAHSSLKEYDQAVKDAESAISIDPSYFRGYSRLGFAKYAQGKPEEALEAYKKVLDIEGDNATEAMKRDYESAKKKVEQSLNLEKTVPEQSRDADVDASQGASAGGLPDLGSLLGGGLGGLMNNPQLMQAAQKMMSNPGAMQNIQKMMQDPSIRQMAEGFASGGGTPNLSDLMNNPALRNMAGNLFGGAGAQSTDETPDNENKQ
partner: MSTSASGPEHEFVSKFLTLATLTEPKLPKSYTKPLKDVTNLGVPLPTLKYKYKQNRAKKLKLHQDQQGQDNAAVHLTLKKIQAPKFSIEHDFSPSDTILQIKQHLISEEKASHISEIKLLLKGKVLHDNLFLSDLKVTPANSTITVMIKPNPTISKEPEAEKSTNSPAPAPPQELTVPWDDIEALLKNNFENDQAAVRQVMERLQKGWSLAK

This is an account of results in IntAct's records for PubMed 23297211.

In the test the parent is B1. The note with it: with mdy2_yeast MDY2, Q12285.
Take D31R: the “effect of a mutation on the interaction” value was “decreasing interaction strength”. Then D38R, with “disrupting interaction strength”. For F16Y the value was “with no effect”; for V35A, “decreasing interaction strength”. For E42R the value was “decreasing interaction strength”.
